Data published in the nanobody polyreactivity screen of Harvey et al. (2022).

Experiment: yeast display, Sf9 membrane polyspecificity reagent, FACS + sequencing; frameworks hold sequencing errors
Outline: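 A nanobody's polyreactivity label depends on the gate it was sorted from. Yeast display cells were stained with 10% biotinylated, detergent-solubilized Sf9 membrane reagent for 1 hour at 4 °C, enriched on streptavidin microbeads and sorted by FACS. The low and high (top ~1%) gates were set on anti-HA fluorescence for expression and streptavidin fluorescence for reagent binding.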

Sequence	polyreactivity (PSR sort gate)
QVQLVESGGGLVQAGGSLRLSCAASGSTFSYYAMGWYRQAPGKERELVADISSGGSTNYADSVKGRFTISRDNAKNTVYLQMNSLKPEDTAVYYCNRRYSYYDGFDYWGQGTQVTLSS	low polyreactivity
QVQLVESGGGLVQAGGSLHLSCAASGRIFGKYAMGWYRQAPGKEREFVAAIRSSDGNTYYADSVKGRFTISRDNAKNTVYLQMNSLKPEDTAVYYCAARGTLWTYGYWGQGTQVTVSS	high polyreactivity
QVQLVESGGGLVQAGGSLRLSCAASGSIFAGNTMGWYRQAPGKERELVARMTRAGSTYYADSVKGRFTITRDNAKNTVYLQMNSLKPEDTAVYYCASGPTGSLYRYYYWGQGSQVTVSS	high polyreactivity
QVQLVESGGGLVQAGGSLRLSCAASGSTFTFNAMGWYRQAPGKERELVAVISSGGSTYYADSVKGRFTISRDNAKNTVYLQMNSLKPEDTAVYYCNKVYGYFGQYYLRYNYWGQGTQVTVSS	low polyreactivity
QVQLVESGGGLVQAGGSLRLSCAASGSTRRDYVMGWYRQAPGKERELVAAITSRVDDTYYADSVKGRFTISRDNAKNTVYLQLNSLKPEDTAVYYCAADYSVTLRIGGYYWFYAFDYWGQGTQLTVSS	low polyreactivity
QVHLVESGGGLVQAGGSLRLSCSASGIIFYVYTMGWYRQARGKERELVAAISGSGGSTTYADSVKGRFTISRDNAKNTVYLQMNSLKPEDTAVYYCNAKKWFYRWCKFSEFDYWGQGTQVTVSS	high polyreactivity
QVQLVESGGGLVQAGGSLRLSCAASGRTFPSNVMGWYRQAPGKEREFVAAITTRGGNTRYADSVKGRFTISRDNAKNTVYLQMNSLKPEDTAVFYCAAKVKPGYDYWGQGTQVTVSS	low polyreactivity
QVQLVESGGGLVQAGGSLRLSCAASGFILEPNAMGWYRQAPGKERELVATISFSGGGTYYADSVKGRFTISRDNAKNTVYLQMNSLKPEDTAVYYCAADWYYYVWWYDYWGQGTQVTVSS	high polyreactivity
QVQLVESGGGLVQAGGSLRLSCAASGRIFAYYVMGWYRQAPGKERELVAVISGSGSSTYYADSVKGRFTISRDNAKNTVYLQMNSLKPEDTAVYYCAASIQLYRSFITREYWGQGTQVSVSS	high polyreactivity
QVLLVESGGGLVQAGGSLRLSGAASGSTFYNYAMGWNRQAPGKERELVASISDDGSTNYADSVKGRFTISRDNAKNTVYLQMNSLKQVDSAVYSCAAVWWLQFGSAWYQMGYWGQGTQVTVSS	low polyreactivity
QVQLVESGGGLVQAGGILRLSCAASGFTLLPYAMGWYTQAPGKERELVAAISRRGVSTYYADSVKGRFTLSRDNAKNTVYLPMNSLNPQDTAVNYCAADSYSRATVQYEYWGQCTQVTVSS	high polyreactivity
QVQLVESGGGLVQAGGSLRLSCAASGRIFQRYTMGWYRQAPGKEREFVAAITYSGGSTHYADSVKGRFTISRDNAKNTVYLQMNSLKPEDTAVYYCIADRYYGRGYGYWGQGTQVTVSS	low polyreactivity
QVQLVESGGGLVQAGGSLRLSCAASGSIFKYNAMGWYRPAPGKERELVAAISWSGGSTRYADSLKGRFTISRDNATNTGYLQMNSLKPEDTAVYYCAAKHGRNYAANALYGYWGQGTQVTVSS	high polyreactivity
QVQLVESGGGLVQAGGSLRLSCAASGLTFRINTMGWYRQAPGKERELVASISKSGSSTYYADSVKGRFTISRDNAKNTVYLQMNSLKPEDTAVYYCAARTRTLYVTYYSWGQGTQVTVSS	high polyreactivity
QVQLVESGGGLVQAGGSLRLSCAASGIIFGTNAMGWYRQAPGKERELVAAIRVTGGSTYYADSVKGRFTISRDNAKNTVYLQMNSLKPEDTAVYYCARDSWFVVDMDYWGQGTQVTVSS	low polyreactivity
QVQLVESGGGLVQAGGSLRLSCAASAFIFIIYAMGWYRQAPGKERELVAGIRWSGGSTYYADSVKGRFTISRDNAKNTVYLQMNSLKQEDTAVYYCNKDRGSLTLYTYDYWGQGTQVTVSS	low polyreactivity
QLQLVESGGVLVQAGGSLRLSCAASGRTFSEYLQGCYRPPPGKERELVAASTRGGGGTYYADSVKGRFTISRDNAKNTVYFQMNSLKPEDTAVYYCAAGRRGSAGYYRQFGYGYWGQGTQVTVSS	high polyreactivity
QVQLVESGGGLVQAGGSLRLSCAASGRTLSHYAMGWYRQAPGKERELVAAITRSGGSTYYADSVKGRFTISRDNAKNTVYLQMNSLKPEDTAVYYCNKTLYTTYDYWGQGTQVTVSS	low polyreactivity
QVQLVESGGGLVQAGGSLRLSCAASGRIFRENAMGWYRQAPGKERELVAAINRSGSRTYYADSVKGRFTISRDNAKNTVYLQMNSLKPEDTAVYYCATASSIRYDYWGQGTQVTVSS	high polyreactivity
QVQLVESGGGLVQAGGSLRLSCAASGSIFAWYAMGWYRPAPGKERELVATITWSGGSTYYADSVKGRVTISRDNAKNTVYLQMNSLKPEDTAVYYCAAEVLGIWYDLWDQGDYGGQGTQVTVSS	low polyreactivity
QVQLVESGGGLVQAGGSLRLSCAASGFTFRYYAMGWYRQAPGKERELVATITTSGGSTYYADSVKGRFTISRDNAKNTVYVQMNSLKPEDTAVYYCAADYYYGRRFRSWRDFNYWGQGTQVTVSS	high polyreactivity
QVQLVESGGGLVQAGGSLRLSCAPSGRTLIHYAMGWSRQAPGKEREFVATINIGGRTYADSVKGRFTISRDNAKTTVYLQMNSLKPEDSAVYYCDADHRYSARRSFPTLYDYWAQGTQVTVSS	low polyreactivity

Sequence	polyreactivity (PSR sort gate)
QVQLVESGGGLVQAGGSLRLSCAASGSTFAGNAMGWYRQAPGTDRELVAAIDSSTGSTYYADSVKGRYTISRDNAKNTVYLHMNSLKPEDTAVYYCNKTSFLVTLDYWGQGTQVTVSS	low polyreactivity
QVQLVESGGGLVQAGGSLRLSCAASGYTVTSNAMGWYRQAPGKERELVAAITNVGSTNYADSVKGRFTISRDNAKNTVYLQMNSLKPEDTAVYYCAADWDAVYLQTADYDYWGQGSQVTVSS	low polyreactivity
QVQLVESGGGLVQAGGSLRLSCAASGRTFSAYAMGWYRQAPGKERELVARITSVDSTNYADSVKRRFTISRDNAKNSVYLQINSLKPEDTAVYYCNATFGYPFVDYDDYWGQGTQVTVSS	low polyreactivity
QDQLVESGGGLVQAGGSLRLSCAASGRNFSFNPMGLYRQAPGKERELVATIRTDGTTNYADSVKGRFTISRDNAKNTVYVQMNSLKPEDTAVYYCAADSAYHRRRMYYWGQGTQVTVSS	high polyreactivity
QVQLVDSGGGLVQAGGSLRLSCAASGRTFTRNAMGWYRPATRQERELLAAISFTGGRTYYADSVKGRFTISRDNAKNTVYLQMNSLNPEDTAVYYCNTTSRRSQVGYSTRYDYWGQGTQVTVSS	high polyreactivity
QVRLVESGGGLVQAGGSLRLRCAASGSTFYTYAMGRYRQAPGKERELVAAITFIDGSTYYADSVKGRFTISRDNANNTVYLQMNSLKPEDTAVYYCAAASRGWGYPLYYSTDEYWGHGTQVTVSS	low polyreactivity
QVQLVESGGGLVQAGGSLRLSCAASGFTFIRYAMGWYRQAPGKERELVATISRSGGRTYYADSVKGRFTISRDNAKNTVYLQMNSLKPEDTAVYYCNAEAIVLNGGGYWGQGTQVTVSS	high polyreactivity
QVQLVESGGGLVQAGGSLRLSCAASGYIFIGYAMGWYRQAPGTERELVATITSGGSTNYADSVKGRFTISRDNAKNTVYLQMNSLNPEETAVYNCAAGRGRYCYSWRYLYAIFDYWGQGTQVTVSS	low polyreactivity
QVQLVESGVGLVQAGGSLRLSCAASGIIFFFYAMGWYIQAPGKERELVAAISDDGVSTDYADSVKGRFTISRDNAKNTVYLQMNSLKPEDTAVYYCSAKNERVYPWFSFGYWGQGTQVTVSS	low polyreactivity
QVQLVESGGGLVQAGGSLRLSCAASGSTFYTNAMGWYRQAPWKERELVAAISNAVSTYYADSVKGRFTISRDNAKNTVYLQMKSLKPEDTAVYYCAADPIGLSSLWFRYSVSDVDYWGQGTQVTVSS	low polyreactivity
QVQLVESGGGLVQAGGSLRLSCAASGRTFNWYAMGWYRQAPGKERELVAAISYSGGGTYYADSVKGRFTISRDNAKNTVYLQMNSLKPEDTAVYYCAAETYYAPYVYWGQGTQVTVSS	high polyreactivity
QVQLVESGGGLVQAGGSLRLSCAASGSIFYNNAMGWYRQAPGKERELVAAITIGGSTNYADSVKGRFTISRDNAKNTVYLQMNSLNPEDTAVYYCAAAVLYWVGYGYWGQGTQVTVSS	low polyreactivity
QVQLVESGGGLGQAGCSLRLSCAASGSTFAVYAMGWYRQAPGKERELVATITGSGGSTYYADSVKGRFTISRDNAKNPVYLQMNSLKPEDNAVYYCAAEVVAWSLYEDFKTYDYWGQGTQVTVSS	low polyreactivity
QVQLVESGGGLVQAGGSLRLSCAACGSTFYGHAMGWYRQAPGKRELVAAITWSGGSTYYADSVKGRFTISRDNAKNTVYLQMNSLKPEDTAVYYCAADRRNNNGASGTRLDYWGQGTQVTVSS	low polyreactivity
QVQLVESGGGLVQAGGSLRLSCAASGRIFVFYAMGWYRQAPGKERELVAAITASSTRTYYADSVKGRFTISRDNAKNTFYLQMNSLKPEDTAVYYCAADRYYWGQGTQVTVSS	low polyreactivity
QVQLVESGGGLVQAGGSLRLSCAASGSISGYNAMGWYRQAPGKESELVAVITTDGSTNYADSEKGRFTISRDNAKNTVYLQMNSLKPEDTAVYYCNTDDGWRLLWEYDYWGQGTQVTVSS	low polyreactivity
QVHLVESGGGLVQAGGSLRLSCDASGSTFYCYAMGWYRQAPGKERELVASISWSGGRSYYADSVKGRFTISRDNAKNTDYLQMNSLYPEDTAVYYCAARRKGRYDYWGQGTQVTVSS	high polyreactivity
QVQLVESGGGLVQAGGSLRLSCAASGRIFGSYAMGWYRPAPGKERELVAAINRSGGSTRYADSVKGRFTISRDNAKNTVYLQMNSLKPEDTAVYYCAAPSYARYYAYDSWGQGTQVTVSS	high polyreactivity
QLQLVESGGGLVQAGGSLRLSCAASGSTASINAMGWYRQAPGKERELVADISTNGDSTSYADSVKGRFTISRDNAKNTVYLQMNSLKPEDTAVYYCNAVPHIYAEGTAYKYWGQGTQETVSS	low polyreactivity
QVQHVESGGGLVQAGGSLRLSCAASGNNVMGWYRQAPGKDRELVGAISWSGTSTYADSVKGRFTISRVNAKNTVYLKMNSLKPEDTAVYYCAAEQQGRNYRAYRRYDYWGQGTQVTVSS	low polyreactivity
QVQLVESGGGLVQAGGSLRLSCAASGIIFDRYAMGWYRQAPGKERELVAAITYGGGSTYYADSVKGRFTISRDNAKNTVYLQMNSLKPEDTAVYYCAAVSTWFYQYYYWGQGTQVTVSS	high polyreactivity
